From ChEMBL document CHEMBL2074060, “MDR1 P-glycoprotein transports endogenous opioid peptides” (Peptides, 2001)

Test system: C[C@@H](NC(=O)[C@@H](N)Cc1ccc(O)cc1)C(=O)NCC(=O)N(C)[C@@H](Cc1ccccc1)C(=O)NCCO
Test: TP_TRANSPORTER: uptake in membrane vesicle from MDR1-expressing SW1573/S1 cell
Type: functional, cell membranes

Substance: ATP-dependent translocase ABCB1 (Homo sapiens)
- Km: 43 µM
